Consider 26 molecules from patent publication US20240116985A1 (published 2024).

Common to all, as to experiment: cell-based or functional assay
Assay [1] deals with T1, B-cat-Halo (beta-catenin HaloTag construct expressed in HEK293 cells) (UniProt P35222 1-781).
T1 sequence (looked up): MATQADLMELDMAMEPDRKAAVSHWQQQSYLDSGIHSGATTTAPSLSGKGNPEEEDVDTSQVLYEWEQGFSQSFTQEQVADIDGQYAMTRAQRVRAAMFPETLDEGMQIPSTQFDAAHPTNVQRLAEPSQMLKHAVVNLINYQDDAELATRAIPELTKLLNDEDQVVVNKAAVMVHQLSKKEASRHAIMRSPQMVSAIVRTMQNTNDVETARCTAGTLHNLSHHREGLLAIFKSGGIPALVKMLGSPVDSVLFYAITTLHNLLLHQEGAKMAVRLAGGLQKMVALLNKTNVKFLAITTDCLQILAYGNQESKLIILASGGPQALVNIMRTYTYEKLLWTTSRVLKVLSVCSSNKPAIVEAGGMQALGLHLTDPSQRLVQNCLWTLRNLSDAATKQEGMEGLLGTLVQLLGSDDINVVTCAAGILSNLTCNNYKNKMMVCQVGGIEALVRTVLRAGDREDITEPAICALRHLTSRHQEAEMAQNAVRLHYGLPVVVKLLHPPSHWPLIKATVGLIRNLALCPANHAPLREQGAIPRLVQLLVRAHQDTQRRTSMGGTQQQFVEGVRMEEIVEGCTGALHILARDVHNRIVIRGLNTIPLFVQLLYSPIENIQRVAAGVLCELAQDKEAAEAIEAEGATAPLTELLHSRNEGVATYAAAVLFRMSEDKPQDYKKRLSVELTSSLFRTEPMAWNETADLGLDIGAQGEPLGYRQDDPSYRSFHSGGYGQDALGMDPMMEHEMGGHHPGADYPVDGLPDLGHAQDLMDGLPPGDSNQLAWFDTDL

The target of assay [2] is T2, B-cat-Halo (UniProt P35222 1-781).
T2 sequence (looked up): T1 sequence (looked up)

Assay [3] concerns the target T3, B-cat-Halo (UniProt P35222 1-781).
T3 sequence (looked up): T1 sequence (looked up)
The source holds these as a separate data set.

Starred links: 1 amine or outer side, 2 acyl side, 3 side chain; linkers in the order of their positions; H or OH if unused. Positions of bridges follow the written chain, without caps; N, C: chain ends. Non-standard residues stand in square brackets, D forms with d. Primed or numbered codes have the meaning given here. *: point of attachment. (Pfbn)GAbu = (S)-2-amino-4-((carboxymethyl)((perfluorophenyl)methyl)amino)butanoic acid, O=C([C@H](CCN(CC(=O)[*:3])Cc1c(F)c(F)c(F)c(F)c1F)N[*:1])[*:2]; PyrS2(3) = (S)-3-amino-1-((pent-4-en-1-yloxy)carbonyl)pyrrolidine-3-carboxylic acid, stapling residue, C=CCCCOC(=O)N1CC[C@@](N[*:1])(C(=O)[*:2])C1; PyrS2″ = (S)-3-amino-1-((pent-4-en-1-yloxy)carbonyl)pyrrolidine-3-carboxylic acid (stapling residue), C=CCCCOC(=O)N1CC[C@@](N[*:1])(C(=O)[*:2])C1; (Tfb)GAbu = (S)-2-amino-4-((carboxymethyl)(4,4,4-trifluorobutyl)amino)butanoic acid, O=C([C@H](CCN(CCCC(F)(F)F)CC(=O)[*:3])N[*:1])[*:2]; (Tfp)GAbu = (S)-2-amino-4-((carboxymethyl)(3,3,3-trifluoropropyl)amino)butanoic acid, O=C([C@H](CCN(CCC(F)(F)F)CC(=O)[*:3])N[*:1])[*:2]; B5(23) = 2-amino-2-(pent-4-en-1-yl)hept-6-enoic acid (2,2-bis(4-pentenyl)glycine), stitching residue, C=CCCCC(CCCC=C)(N[*:1])C(=O)[*:2]; B5(4) = 2,2-bis(4-pentenyl)glycine = 2-amino-2-(pent-4-en-1-yl)hept-6-enoic acid (stitching residue), C=CCCCC(CCCC=C)(N[*:1])C(=O)[*:2]; PyrS″ = (S)-1-((allyloxy)carbonyl)-3-aminopyrrolidine-3-carboxylic acid (stapling residue), C=CCOC(=O)N1CC[C@@](N[*:1])(C(=O)[*:2])C1; TfeGA = (S)-2-amino-3-((carboxymethyl)(2,2,2-trifluoroethyl)amino)propanoic acid, O=C([C@H](CN(CC(=O)[*:3])CC(F)(F)F)N[*:1])[*:2]; PyrS2 = (S)-3-amino-1-((pent-4-en-1-yloxy)carbonyl)pyrrolidine-3-carboxylic acid, C=CCCCOC(=O)N1CC[C@@](N[*:1])(C(=O)[*:2])C1; PyrS1 = (S)-3-amino-1-((but-3-en-1-yloxy)carbonyl)pyrrolidine-3-carboxylic acid, C=CCCOC(=O)N1CC[C@@](N[*:1])(C(=O)[*:2])C1; Az = 1-((allyloxy)carbonyl)-3-aminoazetidine-3-carboxylic acid (stapling residue), C=CCOC(=O)N1CC(N[*:1])(C(=O)[*:2])C1; (Bn)GAbu = (S)-2-amino-4-(benzyl(carboxymethyl)amino)butanoic acid, O=C([C@H](CCN(CC(=O)[*:3])Cc1ccccc1)N[*:1])[*:2]; PyrS = (S)-1-((allyloxy)carbonyl)-3-aminopyrrolidine-3-carboxylic acid, C=CCOC(=O)N1CC[C@@](N[*:1])(C(=O)[*:2])C1; B5(19) = 2-amino-2-(pent-4-en-1-yl)hept-6-enoic acid (bis(4-pentenyl)glycine), C=CCCCC(CCCC=C)(N[*:1])C(=O)[*:2]; HypEs5 = (2R,4S)-4-(pent-4-enoyloxy)pyrrolidine-2-carboxylic acid, C=CCCC(=O)O[C@H]1C[C@H](C(=O)[*:2])N([*:1])C1; (Et)GAbu = (S)-2-amino-4-((carboxymethyl)(ethyl)amino)butanoic acid, CCN(CC[C@H](N[*:1])C(=O)[*:2])CC(=O)[*:3]; GA = (S)-2-amino-3-((carboxymethyl)amino)propanoic acid, O=C([C@H](CNCC(=O)[*:3])N[*:1])[*:2]; Phe(4-tetrazol-5-yl) = N[C@@H](Cc1ccc(-c2nnn[nH]2)cc1)C(=O)O; Phe(2-Cl) = N[C@@H](Cc1ccccc1Cl)C(=O)O; Bta = N[C@@H](Cc1csc2ccccc12)C(=O)O; αAllylPro = C=CC[C@@]1(C(=O)O)CCCN1; tBuAla = CC(C)(C)C[C@H](N)C(=O)O; 3Thi = N[C@@H](Cc1ccsc1)C(=O)O; Pfb = not defined here; Aib = CC(C)(N)C(=O)O; Ms = CS(=O)(=O)* Bounds are passed on as bounds.

Take Ac-[αAllylPro]D[tBuAla][B5(4)]D[(Tfp)GAbu]AAFL[PyrS2″][3Thi][Bta]Q-NH2 (staple 1-4, 4-11) [I-1839]: in assay [1], the “NanoBRET Abs IC50” value amounted to 14.6 µM.
As to Ac-[αAllylPro]D[tBuAla][B5(4)]D[(Bn)GAbu]AAFL[PyrS2″][3Thi][Bta]Q-NH2 (staple 1-4, 4-11) [I-1834], in assay [1], the “NanoBRET Abs IC50” value was found to be 18.8 µM.

B1: I-1567 (peptide)
peptide: Ac-[αAllylPro]D[tBuAla][B5(23)]NQAAFN[PyrS2][3Thi][Bta]Q-NH2
modifications: staple 1-4, 4-11; not fully specified; printed as Ac-PL3-Asp-Npg-B5-Asn-Gln-Ala-Ala-Phe-Asn-PyrS2-3Thi-BztA-Gln-NH2
For the molecule B1, the “NanoBRET Abs IC50” value in the assay with B-cat-Halo [2] is over 20 µM.
For Ac-[αAllylPro]D[tBuAla][B5(19)]DDAAFL[PyrS][3Thi][Bta]Q-NH2 (staple 1-4, 4-11) [I-1818], the “NanoBRET Abs IC50” value in assay [1] was over 20 µM.
For Ac-[αAllylPro]D[tBuAla][B5(23)]NNAAFL[PyrS2][3Thi][Bta]Q-NH2 (staple 1-4, 4-11) [I-1557], the “NanoBRET Abs IC50” value with B-cat-Halo [2] was over 20 µM.
With Ac-[αAllylPro]D[tBuAla][B5(19)]DDAAFL[PyrS1][3Thi][Bta]Q-NH2 (staple 1-4, 4-11; also: staple olefins reduced to CH2-CH2) [I-1822], the “NanoBRET Abs IC50” value in assay [1] is over 20 µM.
With Ac-[αAllylPro]D[tBuAla][B5(19)]DDAAFN[PyrS][3Thi][Bta]Q-NH2 (staple 1-4, 4-11; also: staple olefins reduced to CH2-CH2) [I-1823], the “NanoBRET Abs IC50” value in assay [1] was over 20 µM.
Ac-[αAllylPro]D[tBuAla][B5(4)]D[(Pfbn)GAbu]AAFL[PyrS2″][3Thi][Bta]Q-NH2 (staple 1-4, 4-11) [I-1838]: the “NanoBRET Abs IC50” value in assay [1] amounted to 7.9 µM.
Take Ac-[αAllylPro]D[tBuAla][B5(4)]DDAAFL[PyrS″][3Thi][Bta]Q-NH2 (staple 1-4, 4-11; also: staple -CH=CH- reduced to -CH2-CH2- in both staples) [I-1824]: the “NanoBRET Abs IC50” value in assay [1] is over 20 µM.
In the case of Ac-[αAllylPro]D[tBuAla][B5(23)]D[3TzF]AAFN[PyrS2(3)][3Thi][Bta]Q-NH2 (staple 1-4, 4-11) [I-1578], in the assay with B-cat-Halo [2], the “NanoBRET Abs IC50” value was over 20 µM.
For the molecule Ac-[αAllylPro]D[tBuAla][B5(4)]DDAAFL[Az][3Thi][Bta]Q-NH2 (staple 1-4, 4-11) [I-1828], the “NanoBRET Abs IC50” value in assay [1] was over 20 µM.
Still for that read-out and setting: for Ac-[αAllylPro]D[tBuAla][B5(4)]D[(Et)GAbu]AAFL[PyrS2″][3Thi][Bta]Q-NH2 (staple 1-4, 4-11) [I-1835] the value was 31.9 µM.
On the same count and under the same terms, for Ac-[αAllylPro]D[tBuAla][B5(4)]D[(Tfb)GAbu]AAFL[PyrS2″][3Thi][Bta]Q-NH2 (staple 1-4, 4-11) [I-1837] the value was 18.5 µM.

B2: I-1574 (peptide)
peptide: Ms-[HypEs5]D[tBuAla][B5(23)]DDAAFN[PyrS2][3Thi][Bta]Q-NH2
modifications: staple 1-4, 4-11; not fully specified; printed as MeSO2-HypEs5-Asp-Npg-B5-Asp-Asp-Ala-Ala-Phe-Asn-PyrS2-3Thi-BztA-Gln-NH2
As for B2, the “NanoBRET Abs IC50” value in the assay with B-cat-Halo [2] is over 20 µM.
For Ac-[αAllylPro]DA[B5(23)]NNAAFN[PyrS2][3Thi][Bta]Q-NH2 (staple 1-4, 4-11) [I-1556], in the assay with B-cat-Halo [2], the “NanoBRET Abs IC50” value is over 20 µM.
With Ac-[αAllylPro]D[tBuAla][B5(19)]DDAAFN[PyrS1][3Thi][Bta]Q-NH2 (staple 1-4, 4-11; also: staple olefins reduced to CH2-CH2) [I-1821], in assay [1], the “NanoBRET Abs IC50” value is over 20 µM.

B3: I-1571 (peptide)
peptide: Ac-[αAllylPro]D[tBuAla][B5(23)]D[GA](Pfb)AAFN[PyrS2][Phe(2-Cl)][Bta]Q-NH2
modifications: staple 1-4, 4-11; reading uncertain; also: printed as Ac-PL3-Asp-Npg-B5-Asp-[Pfb]GA-Ala-Ala-Phe-Asn-PyrS2-2C1F-BztA-Gln-NH2
As for B3, in the assay with B-cat-Halo [2], the “NanoBRET Abs IC50” value came out at 11.7 µM.
Regarding Ac-[αAllylPro]D[tBuAla][B5(23)]D[GA]AAFN[PyrS2][Phe(2-Cl)][Bta]Q-NH2 (staple 1-4, 4-11) [I-1572], the “NanoBRET Abs IC50” value with B-cat-Halo [2] is over 20 µM.
Take Ac-[αAllylPro]D[tBuAla][B5(4)]D[TfeGA]AAFL[PyrS2″][Phe(2-Cl)][Bta]Q-NH2 (staple 1-4, 4-11) [I-1833]: in assay [1], the “NanoBRET Abs IC50” value turned out to be 6.9 µM.
For Ac-[αAllylPro]D[tBuAla][B5(23)]NQAAFN[PyrS2][3Thi][Bta]Q-NH2 (staple 1-4, 4-11; also: earlier-eluting HPLC staple isomer) [I-1566], the “NanoBRET Abs IC50” value with B-cat-Halo [2] was over 20 µM.
For the molecule Ac-[αAllylPro]D[tBuAla][B5(4)]DDA[Aib]FL[PyrS2″][3Thi][Bta]Q-NH2 (staple 1-4, 4-11) [I-1178], in the assay with B-cat-Halo [3], the “NanoBRET Abs IC50” value was 28.8 µM.
On to Ac-[αAllylPro]D[tBuAla][B5(4)]DD[Aib]AFL[PyrS2″][3Thi][Bta]Q-NH2 (staple 1-4, 4-11) [I-1177], for which, in the assay with B-cat-Halo [3], the “NanoBRET Abs IC50” value was determined as 4.3 µM.
As to Ac-[HypEs5]D[tBuAla][B5(23)]DDAAFN[PyrS2][3Thi][Bta]Q-NH2 (staple 1-4, 4-11) [I-1573], in the assay with B-cat-Halo [2], the “NanoBRET Abs IC50” value is over 20 µM.
For Ac-[αAllylPro]D[tBuAla][B5(23)]D[Phe(4-tetrazol-5-yl)]AAFN[PyrS2(3)][3Thi][Bta]Q-NH2 (staple 1-4, 4-11) [I-1579], the “NanoBRET Abs IC50” value in the assay with B-cat-Halo [2] is over 20 µM.
Ac-[αAllylPro]D[tBuAla][B5(23)]NTAAFN[PyrS2][3Thi][Bta]Q-NH2 (staple 1-4, 4-11; also: earlier-eluting HPLC staple isomer) [I-1564]: in the assay with B-cat-Halo [2], the “NanoBRET Abs IC50” value was over 20 µM.

B4: I-1565 (peptide)
peptide: Ac-[αAllylPro]D[tBuAla][B5(23)]NTAAFN[PyrS2][3Thi][Bta]Q-NH2
modifications: staple 1-4, 4-11; not fully specified; printed as Ac-PL3-Asp-Npg-B5-Asn-Thr-Ala-Ala-Phe-Asn-PyrS2-3Thi-BztA-Gln-NH2
Turning to B4, the “NanoBRET Abs IC50” value with B-cat-Halo [2] is over 20 µM.
